This note sets out measurements from patent publication US20250320281A1.

What all share (experiment): cell-based or functional assay
The target in assay [1] is HIV-1 Env of isolate MGRM-D-022 (clade D pseudovirus) (HIV-1).
Assay [2] deals with HIV-1 92UG024 envelope glycoprotein (Env) on pseudovirus (HIV-1).
Assay [3] concerns the target HIV-1 envelope glycoprotein (Env) of isolate 92RW008, clade A (HIV-1).
Assay [4] deals with HIV-1 Env of pseudovirus MGRM-AG-001 (clade CRF_AG) (HIV-1).
The target in assay [5] is HIV-1 Env of isolate 98CN006 (CRF08 BC) (HIV-1 isolate 98CN006).
Assay [6] has as its target HIV-1 IAVI-C18 envelope glycoprotein (Env) on pseudovirus (HIV-1).
The target of assay [7] is HIV-1 Env of isolate LAVI_C22 (HIV-1).
The target in assay [8] is HIV-1 Env of isolate MGRM-D-016 (clade D pseudovirus) (HIV-1).
Assay [9] deals with HIV-1 envelope glycoprotein (Env) of isolate MGRM-A-013, clade A (HIV-1).
The target of assay [10] is HIV-1 Env of isolate LAVIC_18 (HIV-1).
The target of assay [11] is HIV-1 envelope glycoprotein (Env) of isolate MGRM-A-003, clade A (HIV-1).
The target of assay [12] is HIV-1 Env of pseudovirus MGRM-Chronic-B-024 (HIV-1).
Assay [13] deals with HIV-1 Env of pseudovirus MGRM-AG-005 (clade CRF_AG) (HIV-1).
For assay [14], the target named is HIV-1 Env of pseudovirus MGRM-AE-001 (clade CRF01_AE) (HIV-1).
Assay [15] concerns the target HIV-1 envelope glycoprotein (Env) of isolate MGRM-A-008, clade A (HIV-1).
Assay [16] has as its target HIV-1 Env of pseudovirus MGRM-AG-011 (clade CRF_AG) (HIV-1).
For assay [17], the target named is HIV-1 Env of isolate CAAN.A2 (Acute), clade B, on pseudovirus (HIV-1).
Assay [18] deals with HIV-1 Env of isolate MGRM-D-021 (clade D pseudovirus) (HIV-1).
Assay [19] concerns the target HIV-1 envelope glycoprotein (Env) of isolate MGRM-A-010, clade A (HIV-1).
Assay [20] addresses HIV-1 Env of isolate 98CN009 (CRF07 BC) (HIV-1 isolate 98CN009).
Assay [21] concerns the target HIV-1 Env of isolate MGRM-F1-004 (pseudovirus) (HIV-1).
The target in assay [22] is HIV-1 Env of isolate MGRM-D-008 (pseudovirus) (HIV-1).
The target in assay [23] is HIV-1 MGRM-A-010 Env (pseudovirus, clade A) (HIV-1).
For assay [24], the target named is HIV-1 Env of isolate MGRM-F1-016 (HIV-1).
Assay [25] has as its target HIV-1 Env of isolate MGRM-F1-008 (pseudovirus) (HIV-1).
Assay [26] concerns the target HIV-1 Env of isolate MGRM-F1-020 (HIV-1).
Assay [27] deals with HIV-1 Env of isolate MGRM-F1-006 (pseudovirus) (HIV-1).
The target in assay [28] is HIV-1 Env of isolate MGRM-D-026 (pseudovirus) (HIV-1).
The target of assay [29] is HIV-1 Env of isolate APV_6 (subtype B pseudovirus) (HIV-1).
The target of assay [30] is HIV-1 Env of isolate MGRM-AE-006 (HIV-1).
The target in assay [31] is HIV-1 Env of isolate JR-CSF (subtype B pseudovirus) (HIV-1) (UniProt P20871).
In assay [32] the target is HIV-1 NL43 Env (pseudovirus, clade B) (HIV-1).

Chain of 1443_C16 (PG16) (TCN-116) (antibody) (VH): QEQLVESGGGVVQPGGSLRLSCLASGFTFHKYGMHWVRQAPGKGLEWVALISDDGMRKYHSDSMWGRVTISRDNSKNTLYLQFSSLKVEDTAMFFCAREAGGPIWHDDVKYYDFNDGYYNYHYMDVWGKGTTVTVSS
Chain of 1443_C16 (PG16) (TCN-116) (antibody) (VL): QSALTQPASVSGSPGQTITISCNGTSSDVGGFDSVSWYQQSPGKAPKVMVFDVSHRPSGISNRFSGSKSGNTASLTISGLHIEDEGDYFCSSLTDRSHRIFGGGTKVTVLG

The IC50 is the concentration needed to halve the response being measured. A higher IC50 goes with lower potency. Turning to 2F5 (antibody), the IC50 (µg/ml), pseudovirus neutralization in [1] was 8.45 µg/mL; in [3] it was 10.4 µg/mL; in assay [5], above 50 µg/mL; in assay [8] it was 9.85 µg/mL; in assay [9], 0.66 µg/mL; in assay [11], 7.37 µg/mL. Further, the IC50 (µg/ml), pseudovirus neutralization in assay [12] is above 50 µg/mL; in assay [15] it was above 50 µg/mL; in assay [17], 23.1 µg/mL; in assay [18], above 50 µg/mL; in assay [19], 20.8 µg/mL; in [20] it was above 50 µg/mL. Besides, the IC50, pseudovirus neutralization in assay [2] is 1.27 µg/mL; in [6], above 50 µg/mL. For the same substance, the IC50 in [4] is 0.75 µg/mL; in assay [7], above 50 µg/mL; in [10], above 50 µg/mL; in [13], above 50 µg/mL; in assay [14], 0.29 µg/mL; in [16], above 50 µg/mL.
For 2G12 (antibody), the IC50 (µg/ml), pseudovirus neutralization is above 50 µg/mL in assay [1]; 22.5 µg/mL in assay [3]; above 50 µg/mL in assay [5]; above 50 µg/mL in [8]; above 50 µg/mL in assay [9]; above 50 µg/mL in [11]. Moreover, the IC50 (µg/ml), pseudovirus neutralization in assay [12] was above 50 µg/mL; in assay [15] it was above 50 µg/mL; in [17], above 50 µg/mL; in assay [18] it was 23 µg/mL; in [19] it was 17 µg/mL; in assay [20] it was above 50 µg/mL. Besides, the IC50, pseudovirus neutralization in assay [2] was 0.59 µg/mL; in [6], above 50 µg/mL. Also, the IC50 in assay [4] is 0.69 µg/mL; in assay [7], above 50 µg/mL; in [10] it was above 50 µg/mL; in assay [13] it was above 50 µg/mL; in assay [14], above 50 µg/mL; in assay [16], above 50 µg/mL.
For 4E10 (antibody), the IC50 (µg/ml), pseudovirus neutralization amounted to 16.9 µg/mL in assay [1]; 14.5 µg/mL in assay [3]; 1.91 µg/mL in assay [5]; 15.4 µg/mL in assay [8]; 1.46 µg/mL in assay [9]; 5.94 µg/mL in assay [11]. Besides, the IC50 (µg/ml), pseudovirus neutralization in [12] came to 9.19 µg/mL; in assay [15], 7.59 µg/mL; in assay [17], 17.9 µg/mL; in assay [18], 13.3 µg/mL; in assay [19], 14.4 µg/mL; in assay [20], 2.46 µg/mL. Besides, the figures for the IC50, pseudovirus neutralization in assay [2] and in assay [6] were 1.32 µg/mL and above 50 µg/mL, respectively. Also, the IC50 in [4] is 1.12 µg/mL; in assay [7], 2.02 µg/mL; in [10], above 50 µg/mL; in assay [13], 2.13 µg/mL; in assay [14], 0.85 µg/mL; in assay [16], 1.36 µg/mL.
With 1443_C16 (PG16) (TCN-116) (antibody), the IC50 (µg/ml), pseudovirus neutralization in assay [1] is above 50 µg/mL; in assay [3] it was 0.002 µg/mL; in assay [5], above 50 µg/mL; in assay [8], 0.02 µg/mL; in assay [9], 0.09 µg/mL; in [11], 2.65 µg/mL. The IC50 (µg/ml), pseudovirus neutralization in [12] was 0.01 µg/mL; in assay [15], above 50 µg/mL; in assay [17] it was 8.83 µg/mL; in assay [18], above 50 µg/mL; in assay [19] it was 0.004 µg/mL; in assay [20], 5.76 µg/mL. Moreover, the figures for the IC50, pseudovirus neutralization in assay [2] and in assay [6] were above 50 µg/mL and 0.0067 µg/mL, respectively. The IC50 is 0.03 µg/mL in assay [4]; 0.02 µg/mL in assay [7]; 0.02 µg/mL in assay [10]; above 50 µg/mL in assay [13]; 4.33 µg/mL in assay [14]; 0.002 µg/mL in assay [16].
Take 1495_C14 (PGC14) (antibody): the IC50 (µg/ml), pseudovirus neutralization in [1] is above 50 µg/mL; in assay [3], 37 µg/mL; in assay [5] it was above 50 µg/mL; in [8], above 50 µg/mL; in assay [9] it was above 50 µg/mL; in assay [11], above 50 µg/mL. Further, the IC50 (µg/ml), pseudovirus neutralization in assay [12] was above 50 µg/mL; in [15] it was above 50 µg/mL; in assay [17], above 50 µg/mL; in [18], above 50 µg/mL; in assay [19], above 50 µg/mL; in assay [20], 43 µg/mL. For the same substance, the IC50, pseudovirus neutralization in [2] and in assay [6] was above 50 µg/mL in each case. For the same substance, the half-maximal inhibitory concentration (IC50) in assay [4] was above 50 µg/mL; in assay [7], 25 µg/mL; in assay [10], above 50 µg/mL; in assay [13], above 50 µg/mL; in assay [14], above 50 µg/mL; in assay [16], above 50 µg/mL.
For 4858_P08 (PGT-123) (antibody), the IC50, pseudovirus neutralization in [21] is 1.78 µg/mL; in [22], above 50 µg/mL; in assay [25], above 50 µg/mL; in [27], 6.89 µg/mL; in assay [28] it was above 50 µg/mL. In assay [2], this substance had a neutralization IC50 above 10 µg/mL. Besides, the neutralization IC80 in assay [2] was above 10 µg/mL. In addition, the neutralization IC90 in assay [2] was above 10 µg/mL. Moreover, the neutralization IC95 in assay [2] is above 10 µg/mL. Moreover, the IC50 neutralization is 0.492 µg/mL in assay [23] and above 10 µg/mL in assay [32]. Moreover, the IC50 (µg/mL), pseudovirus neutralization in assay [24] turned out to be 4.95 µg/mL; in assay [26], 0.051 µg/mL; in assay [29], 0.023 µg/mL; in assay [31] it was 0.046 µg/mL. Further, the IC50 in assay [30] is above 50 µg/mL.
5123_A06 (PGT-125) (antibody): the IC50, pseudovirus neutralization is above 50 µg/mL in assay [21]; above 50 µg/mL in assay [22]; 0.361 µg/mL in assay [25]; 0.035 µg/mL in assay [27]; above 50 µg/mL in assay [28]. Also, the IC50 neutralization is 0.0055 µg/mL in assay [23] and above 10 µg/mL in [32]. Further, the IC50 (µg/mL), pseudovirus neutralization in [24] was above 50 µg/mL; in assay [26], above 50 µg/mL; in assay [29] it was 0.021 µg/mL; in assay [31], 0.004 µg/mL. Besides, the IC50 in [30] was 0.009 µg/mL.
As for 5141_B17 (PGT-126) (antibody), the IC50, pseudovirus neutralization is 0.063 µg/mL in [21]; above 10 µg/mL in [2]; 43.1 µg/mL in [22]; above 50 µg/mL in assay [25]; 0.078 µg/mL in [27]; above 50 µg/mL in assay [28]. This substance also registered an IC80 (pseudovirus neutralization) in [2] above 10 µg/mL. In assay [2], the IC90 (pseudovirus neutralization) was above 10 µg/mL. Moreover, in [2], the IC95 (pseudovirus neutralization) was above 10 µg/mL. Further, the IC50 neutralization in assay [23] was 0.0033 µg/mL; in assay [32], above 10 µg/mL. The IC50 (µg/mL), pseudovirus neutralization was above 50 µg/mL in assay [24], above 50 µg/mL in [26], 0.007 µg/mL in assay [29] and 0.008 µg/mL in assay [31]. The same substance showed an IC50 in [30] of 17.3 µg/mL.
